What was measured:
Wnt/β-catenin signal [1] = test: Wnt/β-catenin reporter EC50 in 293STF cells expressing GPA33; type: cell-based, human
Method: (§1) The Wnt/β-catenin signal promoting activity of the anti-GPA33 antibody scFv-Rspo fragment fusion recombinant prepared in Example 18 was measured as follows. ONE-Glo™ + Tox Luciferase Reporter and Cell Viability Assay (Promega) was used for the measurement. […] The cells into which each vector was introduced were cultured for 2 days in DMEM medium containing 10% FBS (Nichirei), and then the cells were collected and seeded at 100 µL/well on a CulturPlate-96 (PerkinElmer). The next day, 100 µL of (1) control medium or (2) medium containing recombinant Rspo1FL-Fc or various anti-GPA33 antibody scFv-Rspo fragment fusion recombinant proteins prepared in Example 10 (10-fold serial dilution between 10000 and 0.001 ng/mL, final concentration 5000 to […]) was added to each well. […] The fluorescence value was measured using a Microplate Reader SH-9000 (CORONA). 100 µL of ONE-Glo (trademark) Reagent (Promega) was added to the plate and incubated at room temperature for 3 min, after which the luminescence value was measured using a NIVO microplate reader (PerkinElmer). […] Samples with low activity for which the EC50 value could not be determined were marked NC. […]
(§2) The Wnt/β-catenin signal promoting activity of the anti-GPA33 antibody scFv-Rspo fragment-Fc conjugate R1CRD-hFcm-tCAP-G17 prepared in Example 19 was measured as shown in Example 20. […]

Wnt/β-catenin signal [2] = test: Wnt/β-catenin reporter EC50 in 293STF cells expressing MOG; type: cell-based, human; conditions: NC = low activity, EC50 could not be determined (taken as >30 nM for the ratio)
Method: as §1, §2

[3] = system: Mouse small intestinal organoids; test: Mouse small intestinal organoid culture; type: cell-based; parameters: key: those in which clear proliferation was observed are indicated with ○; those in which proliferation was observed but to a weak extent are indicated with △; those in which no proliferation was observed are indicated with ×
Method: Mouse small intestinal organoid culture using anti-GPA33 antibody scFv-Rspo fragment fusion (Example 18) and anti-GPA33 antibody scFv-Rspo fragment-Fc conjugate (Example 19) was performed as shown below. Mouse small intestinal organoids (VERITAS ST-70931) were maintenance cultured in ENR medium obtained by adding 2 µg/mL of the recombinant Rspo1FL-Fc prepared in Example 10 to EN medium (DMEM/F-12 containing penicillin/streptomycin, 10 mM HEPES, GlutaMAX, 1xN2, 1xB27 (all Gibco), 1 mM N-acetylcysteine (FUJIFILM Wako Pure Chemical), 50 ng/mL mouse EGF (Gibco), and 100 ng/mL mouse Noggin (PEPROTECH)), or ENR+WA medium (DMEM/F-12 containing penicillin/streptomycin, 10 mM HEPES, GlutaMAX, 1xN2, 1xB27 (all Gibco), […] N-acetylcysteine (FUJIFILM Wako Pure Chemical), 50 ng/mL mouse EGF (Gibco), and 100 ng/mL mouse Noggin (PEPROTECH), 10% Afamin/Wnt3a CM (MBL), and 500 nM A-83-01 (FUJIFILM Wako Pure Chemical)). Mouse small intestinal organoids were collected with Gentle Cell Dissociation Reagent (STEMCELL), resuspended in EN medium and Matrigel (Corning), and seeded onto 48-well plates. 250 µL of (1) EN medium, (2) EN medium containing recombinant Rspo1FL-Fc (20 ng/mL or 1 µg/mL) prepared in Example 10, or (3) EN medium containing anti-GPA33 antibody scFv-Rspo fragment fusion or anti-GPA33 antibody scFv-Rspo fragment-Fc conjugate ([…]) was added to each well. The medium was changed once every three days, and the cells were cultured for six days.
Comparing organoids on the first day (Day 1) and the fifth day (Day 5) after seeding, those in which clear proliferation was observed are indicated with ○, those in which proliferation was observed but to a weak extent are indicated with △, and those in which no proliferation was observed are indicated with ×. Samples that were not evaluated are indicated with ND.

B1: R1CRD-hFcm-tCAP-G17: conjugate of azidized R1CRD-Fcm and DBCO-G17 scFv by tCAP and click reaction (conjugate)
chain: SRGIKGKRQRRISAEGSQACAKGCELCSEVNGCLKCSPKLFILLERNDIRQVGVCLPSCPPGYFDARNPDMNKCIKCKIEHCEACFSHNFCTKCKEGLYLHKGRCYPACPEGSSAANGTMECSSPAEPKSADKTHTCPPCPAPEAEGAPSVFLFPPKPKDTLMISRTPEVTCVVVDVSHEDPEVKFNWYVDGVEVHNAKTKPREEQYNSTYRVVSVLTVLHQDWLNGKEYKCAVSNKALPASIEKTISKAKGQPREPQVYTLPPSREEMTKNQVSLTCLVKGFYPSDIAVEWESNGQPENNYKTTPPVLDSDGSFFLYSKLTVDKSRWQQGNVFSCSVMHEALHNHYTQKSLSLSPGK
scFv: QMQLVQSGGGLVKPGGSLRLSCAASGFTFSSYNMNWVRQAPGKGLEWVSSISSSGDFMYYADSVKGRFTISRDNAKNSLYLQMSSLRAEDTAVYYCAREGPGTPFDYWGQGTLVTVSSGGGGSGGGGSGSTGSAIQLTQSPSSLSASVGDRVTITCRASQSISSFLNWYQHKPGKAPKLLIYVASSLQSGVPSRFSGSGSGTDFTLTISSLQPEDFATYYCQQSHNTPYTFGQGTKLEIKEPRTPRPCLVPRGSHHHHHHGA
Wnt/β-catenin signal [1]; 293STF cells expressing GPA33, Afamin/Wnt3a 883 ng/mL, 18 hr
  EC50: 0.085 nM
Wnt/β-catenin signal [1]; ratio, NC assumed >30 nM
  EC50(MOG)/ EC50(GPA33): 47.53
Wnt/β-catenin signal [2]
  EC50: 4.04 nM
[3]; 0.2 ng/ml
  organoid proliferation (Day 1 vs Day 5): ×
[3]; 0.8 ng/ml
  organoid proliferation (Day 1 vs Day 5): ×
[3]; 1.4 ng/ml
  organoid proliferation (Day 1 vs Day 5): ×
[3]; 2 ng/ml
  organoid proliferation (Day 1 vs Day 5): ×
[3]; 20 ng/ml
  organoid proliferation (Day 1 vs Day 5): Δ
[3]; 100 ng/ml (conjugate section head, or cells marked *)
  organoid proliferation (Day 1 vs Day 5): ○
[3]; 1000 ng/ml
  organoid proliferation (Day 1 vs Day 5): ○
